Reference: publication PMC12912723

Molecular target: PscF from strain PAO1 (Pseudomonas aeruginosa) (UniProt P95434)
Test: ELISA; competition with biotinylated P1D8

P1D8 (human anti-PscF monoclonal antibody) (from UniProt P01857)
IC50: 0.01 µg/mL
